Holding throughout (assay): cell-based or functional assay
For assay [1], the target named is T1, human ferroportin (SLC40A1) fused in frame with GFP, stably expressed in HEK293 cells (human, UniProt Q9NP59 1-571).
T1 sequence (looked up): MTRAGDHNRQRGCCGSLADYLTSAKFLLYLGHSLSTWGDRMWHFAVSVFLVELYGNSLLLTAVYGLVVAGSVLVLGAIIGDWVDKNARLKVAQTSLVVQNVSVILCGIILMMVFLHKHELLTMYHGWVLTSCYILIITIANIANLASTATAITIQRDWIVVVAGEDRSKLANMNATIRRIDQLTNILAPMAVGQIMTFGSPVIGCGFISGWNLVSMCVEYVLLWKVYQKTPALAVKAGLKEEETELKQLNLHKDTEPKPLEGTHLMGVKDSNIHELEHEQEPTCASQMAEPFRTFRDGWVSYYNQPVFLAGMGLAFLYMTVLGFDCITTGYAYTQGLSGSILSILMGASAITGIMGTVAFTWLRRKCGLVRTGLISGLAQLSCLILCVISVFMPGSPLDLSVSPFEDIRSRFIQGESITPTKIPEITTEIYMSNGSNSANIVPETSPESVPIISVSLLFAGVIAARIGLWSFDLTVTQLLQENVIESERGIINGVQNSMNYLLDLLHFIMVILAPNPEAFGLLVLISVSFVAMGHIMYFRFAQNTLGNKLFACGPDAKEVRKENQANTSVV

Assay [2] has as its target T1, human ferroportin (SLC40A1) fused in …. The source holds these as a separate data set.
Assay [3] shares this target. This is another data set of the same source.
Assay [4] deals with T2, human ferroportin (SLC40A1) fused in frame with GFP, stably expressed on HEK293 cells (human, UniProt Q9NP59 1-571).
T2 sequence (looked up): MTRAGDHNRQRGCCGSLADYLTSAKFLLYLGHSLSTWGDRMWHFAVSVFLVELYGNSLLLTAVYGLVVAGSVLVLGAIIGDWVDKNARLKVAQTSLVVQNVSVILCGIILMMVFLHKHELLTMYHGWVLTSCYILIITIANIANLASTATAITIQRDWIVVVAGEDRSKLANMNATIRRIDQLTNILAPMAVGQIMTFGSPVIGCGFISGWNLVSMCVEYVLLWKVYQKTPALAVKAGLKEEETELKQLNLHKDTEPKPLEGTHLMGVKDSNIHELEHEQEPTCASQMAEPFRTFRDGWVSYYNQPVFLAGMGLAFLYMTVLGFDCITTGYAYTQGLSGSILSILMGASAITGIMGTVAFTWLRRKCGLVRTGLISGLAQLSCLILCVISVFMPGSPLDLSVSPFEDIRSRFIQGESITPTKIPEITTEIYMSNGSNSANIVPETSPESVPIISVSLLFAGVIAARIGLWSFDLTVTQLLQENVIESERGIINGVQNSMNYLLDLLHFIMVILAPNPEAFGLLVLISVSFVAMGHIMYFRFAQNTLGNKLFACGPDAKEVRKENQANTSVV

Assay [5] has as its target T1, human ferroportin (SLC40A1) fused in …. The source holds these as a separate data set.
Assay [6] concerns the target T2, human ferroportin (SLC40A1) fused in …. The source holds these as a separate data set.
In assay [7] the target is T1, human ferroportin (SLC40A1) fused in …. The source holds these as a separate data set.
Assay [8] shares this target. This is another data set of the same source.
In assay [9] the target is T2, human ferroportin (SLC40A1) fused in …. The source holds these as a separate data set.

Like-named read-outs stand apart in the source and are kept apart here. Bridge positions count the residues as written; N and C are the ends. Primed or numbered codes have the meaning given here. Ends that are not written are not given here. * marks the point of attachment. PEG8(3) = PEG8 side chain conjugate on Lys; Isovaleryl = CC(C)CC(=O)*

B1: Compound 351 (peptide)
peptide: DTHFPCIKF-NH2
modifications: not fully specified; printed as [PEG25]-(DTHFPCIKF-NH2)2
Consider B1, for which, in assay [1], the “Log dilutions EC50 (nM) (n > 3)” value is above 1000 nM.

B2: Compound 176 (peptide)
peptide: Isovaleryl-DTHFPICIFGPRSK(PEG8(3))GWVC-NH2
modifications: not fully specified (bridges); cysteine pairing not given here
Turning to B2, the “In Vitro Activity EC50” value in [2] came to 6 nM.

B3: Compound 68 (peptide)
peptide: H-DTHFPICAFGPRSKGWVCM-NH2
modifications: disulfide 7-18 (inferred)
With B3, the “EC50 (nM) (n > 3)” value in assay [3] is above 10000 nM.

B4: Compound 51 (DTHFPCIAF-NH2) (peptide)
peptide: H-DTHFPCIAF-NH2
As for B4, the “EC50 (nM) (n > 3)” value in assay [4] is 382 nM.

B5: Compound 184 (peptide)
peptide: Isovaleryl-DTHFPCIKFEPRSKGCK-NH2
modifications: not fully specified (bridges); cysteine pairing not given here
Regarding B5, the “In Vitro Activity EC50” value in assay [2] was 16 nM.

B6: Compound 150 (peptide)
peptide: DTHFPCIKFKPRSKGWVCK
modifications: not fully specified; N-terminal isovaleric acid; K10(PEG8); C-terminal NH2
With B6, the “In Vitro Activity EC50” value in [2] was 7 nM.

B7: Compound 2 (peptide)
peptide: Isovaleryl-DTHFPICIFGPRSKGWVC-NH2
modifications: disulfide 7-18 (inferred)
Take B7: the “In Vitro Activity EC50” value in [2] was determined as 5 nM. The “Log dilutions EC50 (nM) (n > 3)” value in assay [5] stood at 4.1 nM.

B8: Compound 280 (DTHFACIIF-NH2) (peptide)
peptide: H-DTHFACIIF-NH2
Regarding B8, the “EC50 (nM) (n > 3)” value in assay [4] is above 1000 nM.

B9: Compound 352 (peptide)
peptide: Isovaleryl-DTHFPCIIFGPRSRGWVCK-NH2
modifications: disulfide 6-18 (inferred); not fully specified (residue 19); also: dimer through DIG linker on εN of Lys19 of each monomer
As to B9, in assay [5], the “Log dilutions EC50 (nM) (n > 3)” value came out at 5 nM.

B10: Compound 153 (peptide)
peptide: Isovaleryl-DTHFPCIKFGPRSKGWVCK(PEG8(3))-NH2
modifications: not fully specified (bridges); cysteine pairing not given here
Turning to B10, in [2], the “In Vitro Activity EC50” value came out at 18 nM.

B11: RI-Mini Hepcidin (Hy-DPhe-DIle-DCys-DIle-DPro-DPhe-DHis-DThr-DAsp-NH2) (peptide)
peptide: FICIPFHTD
modifications: all residues are D-amino acids (retro inverse: reversed sequence in all D amino acids); C-terminal amide (-NH2)
Regarding B11, the “EC50 (nM), ferroportin degradation (loss of ferroportin-GFP fluorescence)” value in assay [6] is above 10000 nM.

B12: Compound 348 (peptide)
peptide: H-DTHFPCIKF-NH2
modifications: also: homodimer with IDA-(β-Ala) linking moiety, attachment site not given here
B12: the “Log dilutions EC50 (nM) (n > 3)” value in [1] was 18 nM.

B13: Compound 279 (DTHFPCAIF-NH2) (peptide)
peptide: H-DTHFPCAIF-NH2
Turning to B13, the “EC50 (nM) (n > 3)” value in assay [4] is above 1000 nM.

B14: Compound 345 (peptide)
peptide: Isovaleryl-DTHFPCIKFK-NH2
modifications: also: homodimer via disulfide between Cys6 of each monomer
B14: the “EC50 (nM) (n > 3)” value in assay [7] turned out to be 8 nM. Further, the “Log dilutions EC50 (nM) (n > 3)” value in assay [1] was 8 nM.

B15: Compound 278 (DTHFPCIIA-NH2) (peptide)
peptide: H-DTHFPCIIA-NH2
With B15, the “EC50 (nM) (n > 3)” value in [4] was above 1000 nM.

B16: Compound 283 (DTAFPCIIF-NH2) (peptide)
peptide: H-DTAFPCIIF-NH2
Take B16: the “EC50 (nM) (n > 3)” value in [4] stood at 739 nM.

B17: Compound 326 (peptide)
peptide: Isovaleryl-DTHFPCIKF-NH2
modifications: also: homodimer via disulfide between Cys6 of each monomer
On to B17, for which the “EC50 (nM) (n > 3)” value in assay [7] came to 3 nM. The “Log dilutions EC50 (nM) (n > 3)” value in assay [1] turned out to be 6 nM. Moreover, in assay [8], the “% Activity At 1 uM” value stood at 100% and the “EC50 (nM) (n = 3)” value was found to be 3 nM.

B18: Compound 353 (peptide)
peptide: Isovaleryl-DTHFPICIFGPRSKGWVC-NH2
modifications: disulfide 7-18 (inferred); not fully specified (residue 14); also: dimer through DIG linker on εN of Lys14 of each monomer
Regarding B18, the “Log dilutions EC50 (nM) (n > 3)” value in assay [5] is 2.2 nM.

B19: Compound 52 (DAHFPCIIF-NH2) (peptide)
peptide: H-DAHFPCIIF-NH2
As for B19, the “EC50 (nM) (n > 3)” value in assay [4] was 388 nM.

B20: Compound 349 (peptide)
peptide: Isovaleryl-DTHFPCIKF-NH2
modifications: also: homodimer with IDA-(β-Ala)-Palm linking moiety, attachment site not given here
B20: the “Log dilutions EC50 (nM) (n > 3)” value in assay [1] came out at 5 nM.

B21: Compound 181 (peptide)
peptide: Isovaleryl-DTHFPCIKFEPRSKGWVCK-NH2
modifications: not fully specified (bridges); cysteine pairing not given here
With B21, the “In Vitro Activity EC50” value in [2] worked out at 15 nM.

B22: Compound 284 (ATHFPCIIF-NH2) (peptide)
peptide: H-ATHFPCIIF-NH2
With B22, the “EC50 (nM) (n > 3)” value in [4] was above 1000 nM.

B23: Compound 346 (peptide)
peptide: Isovaleryl-DTHFPCIKFK-NH2
modifications: also: homodimer linked by DIG linker through Lys10 of each monomer
As to B23, the “Log dilutions EC50 (nM) (n > 3)” value in assay [1] was found to be 15 nM.

B24: Compound 3 (peptide)
peptide: Isovaleryl-DTHFPCIIFGPRSRGWVCK-NH2
modifications: disulfide 6-18 (inferred)
Consider B24, for which the “In Vitro Activity EC50” value in assay [2] is 15 nM. Further, the “Log dilutions EC50 (nM) (n > 3)” value in assay [5] was found to be 15 nM.

B25: Mini-Hepcidin 1-9 (Hy-DTHFPICIF-NH2) (peptide)
peptide: H-DTHFPICIF-NH2
As for B25, the “EC50 (nM) (n > 3)” value in [9] worked out at 712 nM. Also, the “EC50 (nM), ferroportin degradation (loss of ferroportin-GFP fluorescence)” value in [6] is 712 nM.

The values above are taken from patent US20250340608A1 (PROTAGONIST THERAPEUTICS, published 2025).
